{"source": "the RNAGym collection of RNA variant scans (doi:10.7554/elife.80360)", "parents": {"B1": {"name": "Hammerhead Ribozyme (parent)", "chain": "ACCGGAUGUGCUUUCCGGUCUGAUGAGUCCGUGAGGACGAAACAG"}}, "data": [{"variants_of": "B1", "assay": "self-cleavage, relative activity (ratio to wild type); higher = more cleavage; co-transcriptional", "values": [{"variant": "ACCGGAUGUGAUUUCGGGUCUGAUGAGUCCGUGAGGACGAAACAG", "note": "[C11A C16G]", "self-cleavage": 1.1}, {"variant": "ACCGGAUGUGAUUUCUGGUCUGAUGAGUCCGUGAGGACGAAACAG", "note": "[C11A C16U]", "self-cleavage": 0.985}, {"variant": "ACCGGAUGUGAUUUCAGGUCUGAUGAGUCCGUGAGGACGAAACAG", "note": "[C11A C16A]", "self-cleavage": 1.41}, {"variant": "ACCGGAUGUGGUUUCCGGUCUGAUGCGUCCGUGAGGACGAAACAG", "note": "[C11G A26C]", "self-cleavage": 0.725}, {"variant": "ACCGGAUGUGGUUUCCGGUCUGAUGUGUCCGUGAGGACGAAACAG", "note": "[C11G A26U]", "self-cleavage": 1.05}, {"variant": "ACCGGAUGUGGUUUCCGGUCUGAUGGGUCCGUGAGGACGAAACAG", "note": "[C11G A26G]", "self-cleavage": 0.393}, {"variant": "ACCGGAUGUGAUGUCCGGUCUGAUGAGUCCGUGAGGACGAAACAG", "note": "[C11A U13G]", "self-cleavage": 0.853}, {"variant": "ACCGGAUGUGAUAUCCGGUCUGAUGAGUCCGUGAGGACGAAACAG", "note": "[C11A U13A]", "self-cleavage": 1.46}, {"variant": "ACCGGAUGUGAUCUCCGGUCUGAUGAGUCCGUGAGGACGAAACAG", "note": "[C11A U13C]", "self-cleavage": 1.01}, {"variant": "ACCGGAUGUGAUUUCCGGUCUGAUGAGUCAGUGAGGACGAAACAG", "note": "[C11A C30A]", "self-cleavage": 1.1}, {"variant": "ACCGGAUGUGAUUUCCGGUCUGAUGAGUCGGUGAGGACGAAACAG", "note": "[C11A C30G]", "self-cleavage": 0.955}, {"variant": "ACCGGAUGUGAUUUCCGGUCUGAUGAGUCUGUGAGGACGAAACAG", "note": "[C11A C30U]", "self-cleavage": 0.87}, {"variant": "ACCGGAUGUGGUUUCCGGUCUGGUGAGUCCGUGAGGACGAAACAG", "note": "[C11G A23G]", "self-cleavage": 0.282}, {"variant": "ACCGGAUGUGGUUUCCGGUCUGUUGAGUCCGUGAGGACGAAACAG", "note": "[C11G A23U]", "self-cleavage": 0.41}, {"variant": "ACCGGAUGUGGUUUCCGGUCUGCUGAGUCCGUGAGGACGAAACAG", "note": "[C11G A23C]", "self-cleavage": 0.549}, {"variant": "ACCGGAUGUGAUUUCCGGUCUGAAGAGUCCGUGAGGACGAAACAG", "note": "[C11A U24A]", "self-cleavage": 1.14}, {"variant": "ACCGGAUGUGAUUUCCGGUCUGAGGAGUCCGUGAGGACGAAACAG", "note": "[C11A U24G]", "self-cleavage": 1.34}, {"variant": "ACCGGAUGUGAUUUCCGGUCUGACGAGUCCGUGAGGACGAAACAG", "note": "[C11A U24C]", "self-cleavage": 1.13}, {"variant": "ACCGGAUGUGGUUUCCGGUCUGAUGAGUCCGUGAGGACGAAACAG", "note": "[C11G]", "self-cleavage": 1.12}, {"variant": "ACCGGAUGUGAUUUCCGGUCUGAUGAGUCCGUGAGGACGAAACAU", "note": "[C11A G45U]", "self-cleavage": 1.05}, {"variant": "ACCGGAUGUGAUUUCCGGUCUGAUGAGUCCGUGAGGACGAAACAC", "note": "[C11A G45C]", "self-cleavage": 0.97}, {"variant": "ACCGGAUGUGAUUUCCGGUCUGAUGAGUCCGUGAGGACGAAACAA", "note": "[C11A G45A]", "self-cleavage": 0.778}, {"variant": "ACCGGAUGUGGUUUCCGGUCUGAUGAGUCCGUGAGGUCGAAACAG", "note": "[C11G A37U]", "self-cleavage": 0.897}, {"variant": "ACCGGAUGUGGUUUCCGGUCUGAUGAGUCCGUGAGGCCGAAACAG", "note": "[C11G A37C]", "self-cleavage": 1.11}, {"variant": "ACCGGAUGUGGUUUCCGGUCUGAUGAGUCCGUGAGGGCGAAACAG", "note": "[C11G A37G]", "self-cleavage": 1.02}, {"variant": "ACCGGAUGUGAUUUCCGGUCUGAUAAGUCCGUGAGGACGAAACAG", "note": "[C11A G25A]", "self-cleavage": 0.342}, {"variant": "ACCGGAUGUGAUUUCCGGUCUGAUUAGUCCGUGAGGACGAAACAG", "note": "[C11A G25U]", "self-cleavage": 0.329}, {"variant": "ACCGGAUGUGAUUUCCGGUCUGAUCAGUCCGUGAGGACGAAACAG", "note": "[C11A G25C]", "self-cleavage": 0.284}, {"variant": "ACCGGAUGUGGUUUCCGGUAUGAUGAGUCCGUGAGGACGAAACAG", "note": "[C11G C20A]", "self-cleavage": 0.477}, {"variant": "ACCGGAUGUGGUUUCCGGUGUGAUGAGUCCGUGAGGACGAAACAG", "note": "[C11G C20G]", "self-cleavage": 0.261}, {"variant": "ACCGGAUGUGGUUUCCGGUCUGAUGAGUCCGUGAGGACGAAGCAG", "note": "[C11G A42G]", "self-cleavage": 0.303}, {"variant": "ACCGGAUGUGGUUUCCGGUCUGAUGAGUCCGUGAGGACGAACCAG", "note": "[C11G A42C]", "self-cleavage": 0.422}, {"variant": "ACCGGAUGUGGUUUCCGGUCUGAUGAGUCCGUGAGGACGAAUCAG", "note": "[C11G A42U]", "self-cleavage": 0.326}, {"variant": "ACCGGAUGUGAUUUCCGGUCUGAUGAGUCCGCGAGGACGAAACAG", "note": "[C11A U32C]", "self-cleavage": 1.06}, {"variant": "ACCGGAUGUGAUUUCCGGUCUGAUGAGUCCGGGAGGACGAAACAG", "note": "[C11A U32G]", "self-cleavage": 1.01}, {"variant": "ACCGGAUGUGAUUUCCGGUCUGAUGAGUCCGAGAGGACGAAACAG", "note": "[C11A U32A]", "self-cleavage": 1.4}, {"variant": "ACCGGAUGUGAUUUCCGGUCUGAUGACUCCGUGAGGACGAAACAG", "note": "[C11A G27C]", "self-cleavage": 0.724}, {"variant": "ACCGGAUGUGAUUUCCGGUCUGAUGAAUCCGUGAGGACGAAACAG", "note": "[C11A G27A]", "self-cleavage": 0.928}, {"variant": "ACCGGAUGUGAUUUCCGGUCUGAUGAUUCCGUGAGGACGAAACAG", "note": "[C11A G27U]", "self-cleavage": 0.684}, {"variant": "ACCGGAUGUGAUUUCCGGUCAGAUGAGUCCGUGAGGACGAAACAG", "note": "[C11A U21A]", "self-cleavage": 0.895}, {"variant": "ACCGGAUGUGAUUUCCGGUCCGAUGAGUCCGUGAGGACGAAACAG", "note": "[C11A U21C]", "self-cleavage": 0.848}, {"variant": "ACCGGAUGUGAUUUCCGGUCGGAUGAGUCCGUGAGGACGAAACAG", "note": "[C11A U21G]", "self-cleavage": 0.713}, {"variant": "ACCGGAUGUGAUUUCCGGUCUGAUGAGUCCGUGAUGACGAAACAG", "note": "[C11A G35U]", "self-cleavage": 0.902}, {"variant": "ACCGGAUGUGAUUUCCGGUCUGAUGAGUCCGUGACGACGAAACAG", "note": "[C11A G35C]", "self-cleavage": 0.887}, {"variant": "ACCGGAUGUGAUUUCCGGUCUGAUGAGUCCGUGAAGACGAAACAG", "note": "[C11A G35A]", "self-cleavage": 0.981}, {"variant": "ACCGGAUGUGGUUUCCGGUCUGAUGAGUCCGUGGGGACGAAACAG", "note": "[C11G A34G]", "self-cleavage": 1.06}, {"variant": "ACCGGAUGUGGUUUCCGGUCUGAUGAGUCCGUGCGGACGAAACAG", "note": "[C11G A34C]", "self-cleavage": 0.893}, {"variant": "ACCGGAUGUGGUUUCCGGUCUGAUGAGUCCGUGUGGACGAAACAG", "note": "[C11G A34U]", "self-cleavage": 1.07}, {"variant": "ACCGGAUGUGGUUUACGGUCUGAUGAGUCCGUGAGGACGAAACAG", "note": "[C11G C15A]", "self-cleavage": 0.824}, {"variant": "ACCGGAUGUGGUUUGCGGUCUGAUGAGUCCGUGAGGACGAAACAG", "note": "[C11G C15G]", "self-cleavage": 0.88}, {"variant": "ACCGGAUGUGGUUUUCGGUCUGAUGAGUCCGUGAGGACGAAACAG", "note": "[C11G C15U]", "self-cleavage": 0.986}, {"variant": "ACCGGAUGUGAUUUCCGGUCUGAUGAGUCCGUGAGGACGAAAGAG", "note": "[C11A C43G]", "self-cleavage": 0.353}, {"variant": "ACCGGAUGUGAUUUCCGGUCUGAUGAGUCCGUGAGGACGAAAAAG", "note": "[C11A C43A]", "self-cleavage": 0.357}, {"variant": "ACCGGAUGUGAUUUCCGGUCUGAUGAGUCCGUGAGGACGAAAUAG", "note": "[C11A C43U]", "self-cleavage": 0.616}, {"variant": "ACCGGAUGUGAUUUCCGGUUUGAUGAGUCCGUGAGGACGAAACAG", "note": "[C11A C20U]", "self-cleavage": 0.681}, {"variant": "ACCGGAUGUGAUUUCCGGUAUGAUGAGUCCGUGAGGACGAAACAG", "note": "[C11A C20A]", "self-cleavage": 0.452}, {"variant": "ACCGGAUGUGAUUUCCGGUGUGAUGAGUCCGUGAGGACGAAACAG", "note": "[C11A C20G]", "self-cleavage": 0.319}]}]}
